Test [1] has as its target T1, HIV-1 YU-2 gp120 (wild-type gp120YU-2, monomeric) (HIV-1 (YU-2), UniProt P35961 32-498).
T1 construct: domain: gp120; only gp120 stood in the assay
Kind of test: SPR competition, sCD4 inhibition: inhibition of gp120 binding to immobilized sCD4.

The target in test [2] is T1, HIV-1 YU-2 gp120 (wild-type gp120YU-2, …). Kind of test: SPR competition, 17b inhibition: inhibition of gp120 binding to immobilized mAb 17b.
For test [3] the target is unchanged. Kind of test: SPR competition: fixed 250 nM HIV-1 YU-2 gp120 with increasing peptide passed over immobilized mAb 17b; inhibition of gp120 binding to 17b.
The target in test [4] is T2, HIV-1 JR-FL envelope (gp120) on JR-FL pseudotyped virus (HIV-1 (JR-FL)). Kind of test: cell-based or functional assay.
The target in test [5] is HIV-1 BaL.01 envelope on BaL.01 pseudotyped virus (HIV-1 (BaL.01)). As to the kind of experiment: cell-based or functional assay.
Test [6] addresses T1, HIV-1 YU-2 gp120 (wild-type gp120YU-2, …). Kind of test: SPR competition (Biacore 3000): 250 nM gp120 YU-2 with increasing peptide over immobilised sCD4.
Test [7] has the same target. As to the kind of experiment: SPR competition binding assay on gp120.
Test [8] has the same target. As to the kind of experiment: SPR competition (Biacore 3000): 250 nM gp120 YU-2 with increasing peptide over immobilised mAb 17b.
For test [9] the target is unchanged. As to the kind of experiment: SPR competition: fixed 250 nM HIV-1 YU-2 gp120 with increasing peptide passed over immobilized sCD4; inhibition of gp120 binding to sCD4.
For test [10] the target is unchanged. As to the kind of experiment: SPR competition on gp120; which of sCD4 or 17b is not said.
The target is the same in test [11]. As to the kind of experiment: SPR competition: fixed 250 nM HIV-1 YU-2 gp120 with increasing peptide passed over immobilized sCD4; inhibition of gp120 binding to sCD4. The source holds these as a separate data set.
The target is the same in test [12]. As to the kind of experiment: >.
Test [13] has the same target. As to the kind of experiment: SPR competition: fixed 250 nM HIV-1 YU-2 gp120 with increasing peptide passed over immobilized mAb 17b; inhibition of gp120 binding to 17b. The source holds these as a separate data set.
The target is the same in test [14]. As to the kind of experiment: SPR competition (Biacore 3000): 250 nM gp120 YU-2 with increasing peptide over immobilised mAb 17b; inhibition of mAb 17b binding to gp120.
Test [15] shares this target. As to the kind of experiment: SPR competition (Biacore 3000): 250 nM gp120 YU-2 with increasing peptide over immobilised sCD4; inhibition of CD4 binding to gp120.
Test [16] has as its target T2, HIV-1 JR-FL envelope (gp120) on JR-FL …. As to the kind of experiment: cell-based or functional assay. This is another data set of the same source.
Test [17] addresses T1, HIV-1 YU-2 gp120 (wild-type gp120YU-2, …). As to the kind of experiment: SPR competition: fixed 250 nM HIV-1 YU-2 gp120 with increasing peptide passed over immobilized sCD4; inhibition of gp120 binding to sCD4. The source holds these as a separate data set.

Starred links: 1 amine or outer side, 2 acyl side, 3 side chain; linkers in the order of their positions; H or OH if unused. Positions of bridges follow the written chain, without caps; N, C: chain ends. Non-standard residues stand in square brackets, D forms with d. No end group written: not given here. X2 = (2S,4S)‑4‑(4-ferrocenyl-1H-1,2,3-triazol-1-yl)pyrrolidine‑2‑carboxylic acid, O=C([C@@H]1C[C@H](n2cc(-[c-]3cccc3)nn2)CN1[*:1])[*:2].[Fe+2].c1cc[cH-]c1; X3 = (2S,4S)‑4‑(4-ferrocenyl-1H-1,2,3-triazol-1-yl)proline, O=C([C@@H]1C[C@H](n2cc(-[c-]3cccc3)nn2)CN1[*:1])[*:2].[Fe+2].c1cc[cH-]c1; Pro(cis-4-Trz(4-CH2CH2Ph)) = O=C(O)[C@@H]1C[C@H](n2cc(CCc3ccccc3)nn2)CN1; Bta = N[C@@H](Cc1csc2ccccc12)C(=O)O; Gly(cPr) = N[C@H](C(=O)O)C1CC1; Nle = CCCC[C@H](N)C(=O)O; Orn = NCCC[C@H](N)C(=O)O; Dab = NCC[C@H](N)C(=O)O Some results are limits rather than exact numbers.

B1: AAR031 (peptide)
peptide: DNI[Pro(cis-4-Trz(4-CH2CH2Ph))]W[Orn]-NH2
modifications: lactam 1-6; N-terminus assumed
SMILES: CC[C@H](C)[C@@H]1NC(=O)[C@H](CC(N)=O)NC(=O)[C@@H](N)CC(=O)NCCC[C@@H](C(N)=O)NC(=O)[C@H](Cc2c[nH]c3ccccc23)NC(=O)[C@@H]2C[C@H](n3cc(CCc4ccccc4)nn3)CN2C1=O
Consider B1, for which the IC50 in test [1] is 5.7 µM; in [2] it was 3.9 µM.
Turning to ENI[Pro(cis-4-Trz(4-CH2CH2Ph))]W[Dab]-NH2 (lactam 1-6, also called macrocycle AAR030) [AAR030], the IC50 in test [1] and in [2] was over 20 µM each time.
On to DN[Nle][X2]WK-NH2 (lactam 1-6) [AAR036], for which the IC50 in [1] and in [2] was about 2 µM in each case.

B2: AAR029 (peptide)
peptide: DNI[Pro(cis-4-Trz(4-CH2CH2Ph))]WK-NH2
modifications: lactam 1-6
notes: Cyclic hexapeptide triazole; also called minimized hexapeptide AAR029; macrocycle AAR029
On to B2, for which the IC50 was determined as 0.0955 µM in test [3], 0.085 µM in test [6], 0.096 µM in test [8] and 0.0852 µM in test [9]. Moreover, the “IC50, HIV-1 infection inhibition, JR-FL pseudotyped virus” value in test [4] is 2.33 µM. Moreover, the “IC50, HIV-1 infection inhibition, Bal.01 pseudotyped virus” value in [5] stood at 2.02 µM. In addition, the “fold enhanced activity vs AAR029b” value in test [7] is about 2 fold. Further, the “fold more active than AAR029A” value in test [10] was over 200 fold.
On to DNI[X2][Bta]K-NH2 (lactam 1-6) [AAR029E], for which the “IC50, HIV-1 infection inhibition, Bal.01 pseudotyped virus” value in test [5] was 0.026 µM. Moreover, the IC50 in test [1] and in test [2] was about 0.02 µM each time.

B3: AAR024A (peptide)
peptide: IENI[Pro(cis-4-Trz(4-CH2CH2Ph))]WK-NH2
modifications: N-terminus assumed
SMILES: CC[C@H](C)[C@H](N)C(=O)N[C@@H](CCC(=O)O)C(=O)N[C@@H](CC(N)=O)C(=O)N[C@H](C(=O)N1C[C@@H](n2cc(CCc3ccccc3)nn2)C[C@H]1C(=O)N[C@@H](Cc1c[nH]c2ccccc12)C(=O)N[C@@H](CCCCN)C(N)=O)[C@@H](C)CC
notes: Acyclic (linear) counterpart of AAR024; also called acyclic analogue of AAR024; linear AAR024A
Take B3: the 50% inhibitory concentration (IC50) was found to be 7.89 µM in test [11], 7.89 µM in [1], 11.3 µM in test [2] and 11.3 µM in [13]. The “fold less active than AAR024” value in test [12] worked out at 50 fold.
For IENI[X3]WK-NH2 (lactam 2-7, Ferrocenyl analogue of AAR024) [AAR024b], the “IC50, HIV-1 infection inhibition, JR-FL pseudotyped virus” value in test [4] was 0.603 µM. Besides, in [5], the “IC50, HIV-1 infection inhibition, Bal.01 pseudotyped virus” value was determined as 0.65 µM. Also, the IC50 was determined as 0.04 µM in test [1] and 0.0376 µM in [2].
DNI[(2S,4S)‑4‑(4-(4-ethylphenyl)-1H-1,2,3-triazol-1-yl)pyrrolidine‑2‑carboxylic acid]WK-NH2 (lactam 1-6) [AAR029H]: the “IC50, HIV-1 infection inhibition, Bal.01 pseudotyped virus” value in test [5] was about 1.9 µM. For the same molecule, the 50% inhibitory concentration (IC50) is about 0.318 µM in test [1] and about 0.245 µM in test [2].

B4: AAR024 (peptide)
peptide: IENI[Pro(cis-4-Trz(4-CH2CH2Ph))]WK-NH2
modifications: lactam 2-7; N-terminus assumed
SMILES: CC[C@H](C)[C@H](N)C(=O)N[C@H]1CCC(=O)NCCCC[C@@H](C(N)=O)NC(=O)[C@H](Cc2c[nH]c3ccccc23)NC(=O)[C@@H]2C[C@H](n3cc(CCc4ccccc4)nn3)CN2C(=O)[C@H]([C@@H](C)CC)NC(=O)[C@H](CC(N)=O)NC1=O
notes: Cyclic peptide triazole; also called cyclic heptapeptide AAR024
Regarding B4, the concentration for half-maximal inhibition (IC50) in test [14] was 0.269 µM; in test [15], 0.138 µM. Also, the “fold more active than the linear AAR024A” value in test [10] is over 40 fold.
For DNI[X2]WK-NH2 (lactam 1-6, Ferrocenyl analogue of AAR029) [AAR029b], the “gp120 shedding EC50 (JR-FL pseudotyped virus, Western blot densitometry of supernatant)” value in [16] came to 0.316 µM. In addition, in test [4], the “IC50, HIV-1 infection inhibition, JR-FL pseudotyped virus” value worked out at 0.19 µM. Moreover, the “IC50, HIV-1 infection inhibition, Bal.01 pseudotyped virus” value in test [5] was found to be 0.21 µM. Also, the figures for the IC50 in test [1] and in test [2] were 0.032 µM and 0.035 µM, respectively.
As for DN[Gly(cPr)][X2]WK-NH2 (lactam 1-6) [AAR042], the 50% inhibitory concentration (IC50) in test [1] and in test [2] was about 2 µM throughout.
Regarding DNI[(2S,4S)‑4‑(4-(adamantan-2-yl)-1H-1,2,3-triazol-1-yl)pyrrolidine‑2‑carboxylic acid]WK-NH2 (lactam 1-6) [AAR029F], the “IC50, HIV-1 infection inhibition, Bal.01 pseudotyped virus” value in test [5] is about 1.3 µM. The concentration for half-maximal inhibition (IC50) in test [1] and in [2] was about 0.2 µM each time.

B5: AAR032 (peptide)
peptide: DNI[Pro(cis-4-Trz(4-CH2CH2Ph))]W[Dab]-NH2
modifications: lactam 1-6; N-terminus assumed
SMILES: CC[C@H](C)[C@@H]1NC(=O)[C@H](CC(N)=O)NC(=O)[C@@H](N)CC(=O)NCC[C@@H](C(N)=O)NC(=O)[C@H](Cc2c[nH]c3ccccc23)NC(=O)[C@@H]2C[C@H](n3cc(CCc4ccccc4)nn3)CN2C1=O
Turning to B5, the IC50 in test [1] stood at 0.5 µM; in test [2], 0.4 µM. Further, the “fold improvement vs AAR031” value in test [7] was about 10 fold.

B6: AAR026 (peptide)
peptide: ENNI[Pro(cis-4-Trz(4-CH2CH2Ph))]WK-NH2
modifications: lactam 1-7; N-terminus assumed
SMILES: CC[C@H](C)[C@@H]1NC(=O)[C@H](CC(N)=O)NC(=O)[C@H](CC(N)=O)NC(=O)[C@@H](N)CCC(=O)NCCCC[C@@H](C(N)=O)NC(=O)[C@H](Cc2c[nH]c3ccccc23)NC(=O)[C@@H]2C[C@H](n3cc(CCc4ccccc4)nn3)CN2C1=O
notes: Cyclic peptide triazole
For the molecule B6, the IC50 is 0.541 µM in [17], 0.541 µM in test [1], 0.54 µM in [6] and 0.384 µM in test [8].

These data come from US20190175688A1 (DREXEL UNIVERSITY, published 2019).
